Measured values reported in publication PMC9727766 (bioRxiv, 2022).

Tests used:
[1] = biological target: SARS-CoV-2 S protein, C-terminally truncated, Omicron BA.4/BA.5, on 293T cells (SARS-CoV-2 Omicron BA.4/BA.5, strain); experiment: flow cytometry on cells
[2] = biological target: SARS-CoV-2 S protein, C-terminally truncated, Omicron BA.1, on 293T cells (SARS-CoV-2 Omicron BA.1 (B.1.1.529), …, strain); experiment: flow cytometry on cells

B1: fp.006 monoclonal antibody (IgG) (antibody, V domains shown)
VH: EVQLVESGGGVVQPGGSLRLSCAASGFNFNNYALHWVRQAPGKGLEWVAIISYEARNKKYGVSVMGRFSISRDNSKSIMYLEMNSLRVEDTGVYYCARDLFLSDYDRSGYDPTRGGFDHWGQGTLVTVSS
VL: EIVMTQSPATLSVSPGERATLSCRASQSVSSSLAWYQHRFGQAPRLLISGASTRATGIPGRFSGSGSGTEFTLTISSLQSEDVAVYYCQQYGDWPLVTFGGGTKVEIK
- fold increase of binding with soluble ACE2 [1]: 8.2 fold
- fold increase of binding with soluble ACE2 [2]: 5.3 fold
